Results published in article PMC4547976.

Key:
myostatin (MSTN) = biological target: T1, myostatin (MSTN) (UniProt O14793)
T1 sequence: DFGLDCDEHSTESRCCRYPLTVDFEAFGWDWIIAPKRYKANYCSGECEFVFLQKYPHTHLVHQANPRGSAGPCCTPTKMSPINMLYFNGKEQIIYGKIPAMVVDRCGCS

GDF11 = biological target: T2, GDF11 (UniProt O95390)
T2 sequence: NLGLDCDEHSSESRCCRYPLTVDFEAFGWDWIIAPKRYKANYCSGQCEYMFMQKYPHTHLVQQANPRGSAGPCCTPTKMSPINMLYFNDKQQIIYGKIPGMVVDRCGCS

activin A = activin A (UniProt P08476)
Chain of UniProt P08476 (P08476 311-426): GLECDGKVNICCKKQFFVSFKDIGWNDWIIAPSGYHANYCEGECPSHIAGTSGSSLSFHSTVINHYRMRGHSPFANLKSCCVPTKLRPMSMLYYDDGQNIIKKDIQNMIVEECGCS

Substance | IC50 of suppression of 1 nM MSTN activity, pGL3-(CAGA)12 luciferase reporter in HEK293 cells (180-0 nM FST-type protein) (myostatin (MSTN)) | IC50 of suppression of 1 nM GDF11 activity, pGL3-(CAGA)12 luciferase reporter in HEK293 cells (180-0 nM FST-type protein) (GDF11) | IC50 of suppression of 1 nM activin A activity, pGL3-(CAGA)12 luciferase reporter in HEK293 cells (180-0 nM FST-type protein) (activin A) | IC50 of suppression of 1 nM MSTN activity, pGL3-(CAGA)12 luciferase reporter in HEK293 cells (myostatin (MSTN)) | IC50 of suppression of 1 nM GDF11 activity, pGL3-(CAGA)12 luciferase reporter in HEK293 cells (GDF11)
MBP-FST288 (chicken follistatin FST288 fused to maltose-binding protein) (natural protein) | 0.00201 µM | 0.00164 µM | 0.00396 µM | – | –
MBP-FST315 (MBP-fused chicken follistatin FST315) (from UniProt Q90844 29-343) (natural protein) | – | – | – | 0.00481 µM | 0.00635 µM
MBP-NDFSD1/1 (chicken follistatin N-terminal domain, FSD1 and a second FSD1 fused to maltose-binding protein) (domain or fragment) | 0.064 µM | 0.0262 µM | – | – | –
MBP-NDFSD1 (chicken follistatin N-terminal domain and FSD1 fused to maltose-binding protein) (domain or fragment) | 0.0689 µM | 0.0579 µM | 0.0153 µM | – | –
MBP-NDFSD1/2 (chicken follistatin N-terminal domain, FSD1 and FSD2 fused to maltose-binding protein) (domain or fragment) | 0.0105 µM | 0.00356 µM | 0.00859 µM | – | –
